Earlier results, collected in paper PMC11901361.

Target: folate receptor alpha (Homo sapiens) (UniProt P15328)
Sequence (P15328 25-234): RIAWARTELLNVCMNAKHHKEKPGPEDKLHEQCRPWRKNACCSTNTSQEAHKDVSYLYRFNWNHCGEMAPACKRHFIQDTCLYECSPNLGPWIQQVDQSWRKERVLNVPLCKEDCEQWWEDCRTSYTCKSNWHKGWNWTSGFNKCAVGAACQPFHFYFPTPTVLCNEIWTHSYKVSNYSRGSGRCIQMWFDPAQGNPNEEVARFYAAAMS

- Kd: 2 µM
Substance: farletuzumab
